{
  "source": "paper PMC9581999",
  "biological_target": "FKBP12-rapamycin binding domain of mTOR (FRB)",
  "data": [
    {"substance": "FK506 binding protein (FKBP) (from UniProt P62942 1-108) (natural protein)", "values": [
      {"measurement": "bioluminescence of the single-chain molecular strain probe F-R86SG-F (FRB-RLuc86SG-FKBP) in COS-7 cells, 10^-6 M rapamycin for 5 h against vehicle (0.1% DMSO), substrate K5; fold intensity", "value": 1.6, "unit": "fold"},
      {"measurement": "bioluminescence of the single-chain molecular strain probe F-R86SG-F (FRB-RLuc86SG-FKBP) in COS-7 cells, 10^-6 M rapamycin for 5 h against vehicle (0.1% DMSO), substrate K6; fold intensity", "value": 3.1, "unit": "fold"}
    ]}
  ]
}
